Experimental data from patent US20220195055A1 (SHANDONG BOAN BIOTECHNOLOGY, published 2022).
Where two headings read alike, the source gives them in different places. Each block holds one binder with its values, some of them ahead of it.

What was measured:
[1] = target: T1, CD25 on cells (SU-DHL-1 target cells; PBMC) (UniProt P01589 22-272, limits assumed); experiment: cell-based or functional assay
T1 sequence (looked up): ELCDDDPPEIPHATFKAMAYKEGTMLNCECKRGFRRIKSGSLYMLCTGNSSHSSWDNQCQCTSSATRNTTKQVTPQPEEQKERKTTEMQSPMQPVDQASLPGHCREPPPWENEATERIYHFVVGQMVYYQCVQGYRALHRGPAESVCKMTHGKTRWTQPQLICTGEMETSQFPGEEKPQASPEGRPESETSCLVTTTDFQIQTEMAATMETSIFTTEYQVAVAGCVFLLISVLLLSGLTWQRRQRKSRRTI

[2] = target: T2, CD25 protein (Sino Biological, 10165-H08H) (UniProt P01589 22-213); experiment: ELISA; CD25 protein coated in a dilution series, antibody at one fixed concentration, anti-human IgG/HRP
T2 construct: Bought recombinant protein; It speaks elsewhere of human CD25; also called antigen CD25; IL-2Rα
T2 sequence (looked up): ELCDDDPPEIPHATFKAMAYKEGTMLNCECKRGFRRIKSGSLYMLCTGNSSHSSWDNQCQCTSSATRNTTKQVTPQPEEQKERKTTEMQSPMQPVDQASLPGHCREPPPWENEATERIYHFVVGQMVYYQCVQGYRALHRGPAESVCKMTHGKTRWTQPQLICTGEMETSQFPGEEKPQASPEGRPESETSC
Excerpt: (§1) The results are shown in FIG. 2A to FIG. 2E and Table 2 to Table 6.

[3] = target: T2, CD25 protein (Sino Biological, …); experiment: as above; remark: listed apart in the source
Excerpt: as §1

[4] = target: T2, CD25 protein (Sino Biological, …); experiment: as above; remark: listed apart in the source
Excerpt: as §1

[5] = target: T2, CD25 protein (Sino Biological, …); experiment: SPR (BIAcore 8K); antibody captured by anti-human IgG Fc, CD25 protein as analyte, 1:1 model
Procedure: Antibody binding kinetics uses BIAcore8K instrument based on surface plasmon resonance (SRP) technology to measure. Anti-human IgG antibody amino was coupled to a CMS biosensor chip by the GE anti Human IgG Fc amino coupling kit (GE, cat # BR-1008-39) to obtain approximately 1000 response units (RU). For kinetic measurements, the CD25 protein (Sino Biological, 10165-H08H) was diluted 2-fold continuously with HBS-EP+1×(GE, BR-1008-26) buffer, starting at 50 nM, being diluted 2-fold for 4 concentration gradients and setting 0 concentration. The antibody to be detected: 2 μg/ml, sample injection time 70 s, flow rate 5 μL/min, stable for 5 s; CD25 protein: binding for 60 s, flow rate 30 μL/min, dissociation for 450 s; regeneration: regeneration was performed for 30 s with 3M MgCl₂ buffer, Startup 3 times. The association constant (ka) and dissociation constant (kd) were calculated using a simple one-to-one Languir binding model (BIAcore Evaluation Software version 3.2), and the equilibrium dissociation constant (KD) was calculated by the ratio kd/ka.

[6] = target: T1, CD25 on cells (SU-DHL-1 target cells; …); experiment: cell-based or functional assay; remark: listed apart in the source
[7] = target: T2, CD25 protein (Sino Biological, …); experiment: ELISA; CD25 protein coated in a dilution series, antibody at one fixed concentration, anti-human IgG/HRP; remark: listed apart in the source
Excerpt: as §1

[8] = target: T1, CD25 on cells (SU-DHL-1 target cells; …); experiment: cell-based or functional assay; remark: listed apart in the source
[9] = target: T2, CD25 protein (Sino Biological, …); experiment: ELISA; CD25 protein coated in a dilution series, antibody at one fixed concentration, anti-human IgG/HRP; remark: listed apart in the source
Excerpt: as §1

% PSTAT5 in CD3 positive T cells of PBMC after IL2, with 10 µg/mL antibody [1]: 18.5%
EC50 [2]: 0.0121 mg/L
EC50 [3]: 0.0245 mg/L
EC50 [4]: 0.0106 mg/L
Kd [5]: 5.19 nM
koff [5]: 0.000912 s⁻¹
kon [5]: 176000 M⁻¹ s⁻¹
EC50 [7]: 0.0141 mg/L
EC50 [9]: 0.017 mg/L
B1: CD25-MA251-IgG1 (antibody, V domains shown)
VH: QVQLKESGPGLVAPSQSLSITCTVSGFSLTSYGIQWVRQPPGKGLEWLGVIWAGGSTNYNSALMSRLSISKDNSKSQVFLKMNSLQTDDTAMYYCARAYGYDGSWLAYWGQGTLVTVSS
VL: QIVLSQSPAILSASPGEKVTMTCRASSSVSYMHWYQQKPGSSPKPWIFATSNLASGVPARFSGSGSGTSYSLTINRVEAEDADTYYCQQWSSNPPTFGGGTKLEIKR
notes: also called CD25Q-MA251; control antibody
EC50 of simulated killing activity (Jurkat effector reporter cells, SU-DHL-1 target cells, luminescence) [6]: 0.255 mg/L
EC50 of simulated killing activity (Jurkat effector reporter cells, SU-DHL-1 target cells, luminescence) [8]: 0.361 mg/L

% PSTAT5 in CD3 positive T cells of PBMC after IL2, with 10 µg/mL antibody [1]: 16.5%
EC50 [3]: 0.00226 mg/L
Kd [5]: 3.79 nM
koff [5]: 0.000339 s⁻¹
kon [5]: 89600 M⁻¹ s⁻¹
B2: CD25Q8-BT942-IgG1 (antibody, V domains shown)
VH: QVQLVQSGAEVKKPGSSVKVSCKASGGTFSSDAINWVRQAPGQGLEWMGRIIPIFGVADYAQKFQGRVTLTADKSTSTAYMDLSSLRSEDTAVFYCARERGDYSNFWYFDLWGRGTLVTVSS
VL: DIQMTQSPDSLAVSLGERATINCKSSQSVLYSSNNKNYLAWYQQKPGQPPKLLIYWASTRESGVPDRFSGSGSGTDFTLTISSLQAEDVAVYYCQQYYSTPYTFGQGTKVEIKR
notes: IgG1 expressed in HEK293

% PSTAT5 in CD3 positive T cells of PBMC after IL2, with 10 µg/mL antibody [1]: 15.8%
EC50 [3]: 0.00916 mg/L
Kd [5]: 3.09 nM
koff [5]: 0.00218 s⁻¹
kon [5]: 705000 M⁻¹ s⁻¹
B3: CD25Q11-CT848-IgG1 (antibody, V domains shown)
VH: QVQLQQWGAGLLKPSETLSLTCAVYGGSFSGSYWSWIRQSPRKGLEWIGEIDHSGSTIANPSLKSRITISLDTSKNQFFLQLRSMTAADTAVYYCARGEAFDIWGQGTMVTVSS
VL: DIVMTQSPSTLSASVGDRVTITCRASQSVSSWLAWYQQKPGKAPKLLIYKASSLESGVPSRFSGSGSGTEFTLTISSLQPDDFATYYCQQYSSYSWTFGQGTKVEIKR
notes: IgG1 expressed in HEK293
